Assay results taken from the DeepSol protein solubility set.

Assay: soluble on expression in E. coli; label from the status in PepcDB or PDB records

| Sequence | soluble on expression in E. coli |
| --- | --- |
| MSFFNPPANSNHGYNDDVNTGYNARMHSKLAEREGFHLGNGSDEPRTLYVGNLDSTVTEDFIATLFNQIGSVTKTKVIFDGSNDPYAFVEFSDHGQASQALQTMNKRLLLDREMKVNWAVEPGQQQSKIDTTRHFHVFVGDLSSEVDNQKLREAFQPFGDVSDAKVIRDTNTTKSKGYGFVSYPKREEAERAIEQMNGQWLGRRTIRTNWATRKPGDQEKPSHYNEKSYDEIYNQTSGDNTSVYVGNIASLTEDEIRQGFASFGRITEVRIFKMQGYAFVKFDNKDAAAKAIVQMNNQDVGGQLVRCSWGKTGDTGKTPGGSYGYGYGNSSSGGNSQPYSGYGGGGAYGGGQGGGGHGGPGQQQSNANSQYWQYYAQYYNNPQLMQQWSNYWQQQGGAPQQQNSGGHQ | not soluble |
| MAHHHHHHMYTWFHTSSHVFFVMEYCSNGDLFTYLNEHGPFAEKKVAEMLFEIIWAIRTCHDKRIAHLDLKPENVLVNHEEKCKLADFGLSAHIGSKHKKKGISHYRGTHDYWSPEQCARHQKKKQNFGEFDQKTDIWTLGILAFELKFGRPPFGSTNEERETVIMNRIQDYHWSQLFCEKMKQDLIDKLSPEFKDFLNLCLDKNPKKRPTAETLIQHPFIFLHNKSRPCIKSYATQPRGKQGPKLSHKGFNEQDGSFLTPIWFHNKG | not soluble |
| MGAPLADILHALVLKIEDQRLGTHASVLLLSEDGKRVLTGAAPHLPDSYNQVIHGVEIGPEVGSCGTAAYTGQRVIVEDIEHHPYWALYKSFALVHGLRACWSEPIKDTQGKVLGTFAMYYKEIKSPTVADLTLIAEAARLASLAIERSRSLEFQRLAVKILEHHHHHH | soluble |
| MGTMRIAFQGTAGAYSEEALLKVFPEAKPVGFPTFHQVFEAVEAGEAELGVVPVENTTAGSINQTYDLLLESDLHVVGEIVHRVEHCLLAPKGTTLKDLHAVKSHPQALAQCDGFLARMRLTPIPVFDTAGAAKELAEHPEPGLAAIASRRAAELYGLEVLAENIEDYPHNYTRFFVIGHKEPPRGQGPYKTSIVFAVRHRPGGLLEALSVFAEAGVNLTKLESRPRRDKPFSYLFYLDLEGHLEDPGPAQALLRLLRRVAFLKVLGSYPAHANGGVSAP | soluble |
| MAHHHHHHMDSQTPHGDVVDEATMAVLPEHGLIFSEIKQMQLLLCKPKLLPVKSYSLEKLEKMEKKLAREAKEKRDANRAQRQAPLVWTSPDLTAGEGVKTIPAPSPLVTVAPAPPQNVASTPLRDGGATPPSAAPAVASSASSRGAASQETLSFTPVHTEGETCADASMSAPERSPRISPSTDVSSSSPSPSASTTD | soluble |
| MGSDKIHHHHHHMKALIEVHNLWKEYNGKEKVTALKGINLRINTGEFVVILGPSGSGKTTLLNCLSGVDRPTRGTVIIHGTDLYTLSEEERTRFRAENMGFVFQFFNLVPVLTAIENVELPLLILGVNRKEARERAFEILRKVGLAHKCDRFPEELSGGEKQRVAIARAIVHNPKVIWADEPTGALDNETGRMIIDLLMEMKENSTLVVVTHDERIAEKADRVIRIRDGQIEQDICEKAL | not soluble |
| MPGFNYGGKGDGTGWSSERGSGPEPGGGSHGNSGGHDRGDSSNVGNESVTVMKPGDSYNTPWGKVIINAAGQPTMNGTVMTADNSSMVPYGRGFTRVLNSLVNNPVSLEHHHHHH | soluble |
| MKIYLVGGAVRDALLGLPVKDKDWVVVGATPQEMLDAGYQQVGRDFPVFLHPQTHEEYALARTERKSGSGYTGFTCYAAPDVTLEADLQRRDLTINALARDDAGQIIDPYHGRRDLEARLLRHVSPAFGEDPLRVLRVARFAARYAHLSFRIADETLALMREMTAAGELEHLTPERVWKETENALTTRNPQVYFQVLRDCGALRVLFPEIDALFGVPAPAKWHPEIDTGVHTLMTLSMAAMLSPQLDVRFATLCHDLGKGLTPKNLWPRHHGHGPAGVKLVEQLCQRLRVPNDLRDLAKLVAEYHDLIHTFPILQPKTIVKLFDAIDAWRKPQRVEQIALTSEADVRGRTGFEASDYPQGRWLREAWQVAQAVPTKEVVEAGFKGIEIREELTKRRIAAVANWKEKRCPNPAS | not soluble |
| MTTVQTSVYEPLTEPKAVSLAVRLGLFRDGAPLACREIGDGNLNLVFHIVDQETKQGVIIKQALPYAKVVGESWPLTLKRAVIESNALRTFASYVPQYVPKVYYSDESLAITVMEDLSRLQIARKGLIEGKTYPLLSQHIGEFVAKTAFYTSDFGMNQQEKKKLAQSFVNPELCKITEDLVFTDPFFDHETNNFEDELRPDVEALWRDDRLHLEAAKLKRKFLTEADVLLHGDLHTGSIFVSADETKVIDPEFAFYGPIGFDLGQFFANLLLNALSRSELERQPLFDHIDRTWDVFASVFSNLWCTESVETYAATPGLLEDVLRHAFIDAVGFAGCEVIRRTIGLAHVADLDGIEHKDERLVAKRHALRLGRRLIIERRVFTGTEDFRRLFAETEQ | not soluble |
| MKHEEMNQRFNHLENEITELNKKLSALVSSEDENKRRDEHYAAIYDYCHKVAHETFMKFLQEKFLPAALSEKEAAYLRPEYVITVNSAGEEEHKSDFIASAPDKDQEPHRPFRVSCEEGEFVVYENGKPVRASHHHCLKIINLAIRCLKDENTRVMKRIGRCMGYLQVAAEIEALASGADMDAAVREALLRDFNTPPLRKSLMTGSSRG | not soluble |
| LTCESVRSTDSPHFAMLDALYARAFPCHEQRESEAKRQALSHPRYALEAWFDEGVFVGLSGCWQFAGYGYIEHLAIDDTLRSRGYGKQLLAQILTRAPLTILEIDPLTTAIAHKRLRFYQSMGFHANPWAHHHPSYHQGIADHELLVLSYPQP | not soluble |
| EVQLLESGGGLVQPGGSLRLSCAASGFTFEEYAMLWVRQAPGKGLEWVSGINARGYTTYYADSVKGRFTISRDNSKNTLYLQMNSLRTEDTAVYYCAKPWYPFMASKGSEFDYWGQGTLVTVSSAAALEIKRASQPELAPEDPEDVEHHHHHH | soluble |
| MGSDKIHHHHHHADNNKWKPLFGKNLENANYNPEVWSETDGVLGAVKDESIWTKDEYENFELDLDFKTDVGTNSGVVVYCTDTKDWIPNSVEIQIADDHCEKWGNGKPYEKCGAIYGHLGAVQDKVVKKPGEWNHMRIKCAGQHIMVILNGKKVTEMDMSKWTSGTKNPDGSDIPSWLPKPFAELPTKGFIGLQGKHGDSLIWFRNIKIRSL | not soluble |
| KTNTEQFCASCHMQDAYPEYLHSVHYQTRTGVGASCPDCHVPHEFGAKMKRKIIAAKEVYAHYTGKVDTLEKFNAHRLEMAQNEWARMKANDSKECRNCHNVDRMTFNDQRSVAARMHQKMKTEGKTCIDCHKGIAHQLPDMSGVESGFKDEK | not soluble |
| MTQSDYIESSEHIKDTQIGYCKYGHGPNYILAICGAVGCYKKDWPLKLLSHFPPDQVTIVGIDPPGYGTSRPPERKQEVQRCMKDSEYCLGLMETLKLEPFTVMGWSEGARTTVHVAAKGKEKVNRMIVMAGATKVNHLGAMAFKGMRETNHWLAAGRQPYLDHYSPETLRTQWAALCDVVDQVHSFCGGRFPCDLVLPQVKCPTLVMNGGLDRFCGDPNVCFIPVLKSLAKVEIHAQGGHDFYLKYPKWFSGKVLEFLKSTEKK | not soluble |
| MSPENKICMEQSEDGDLDAGDELFEEVDGDGKGEIFANRELLNIDHVPDENRIVGRDEHITELANEIGPAVTGSPPNSVILYGKTGSGKSLVANHVMERARREAQRRDRRLATVTVDCAQSRGEADTVQTIADKINRSTSGVTVPTRGISTNEYYNRLWQILGTEYDAALITLDEVDRLSDDDILMILSRAREAGKVDVPIGIISISNKVNFREQMTERVKSSLGHNEMIFDPYDGEQLRQILENRKDAFQEDILMPGVIPKTAALAAQRHGDARKAIRLLRHAGDYAKTNNIGTVKESHLELAQEQAEVERLKELISGLPPHSKYVLYALANLTDGTTNSNDWFRTTVIYDVYEEVCKTEATDTLTTDTIRGLLNELAFLEITESNQEHGGMGKGTYKEHRLLWDPNVVFKMNPGSAQVDTDR | not soluble |
| MGSDKIHHHHHHMVSLLRRTFSEEIKEELVNVPFGSREEVISELLGFIKARGDLDVKSRHIVFSLHSFAASRRLLNLMKYLSKPVSEIIVEKSHNIKKRYIKITAEYSESFMVIEPFFDVALFVSFLRGLFLSGGSMTNPRYHYHLEINLFEEETLALTRKSLKDFFNINAGIIELRNTRKLYIKSIKDILVFLEAIGVQRKLEEIDRIVTERKVIGDVNRTVNFIEANAIRTANSTARQIRAIELIKENMGLENLPEDLRRVALVRLRNKELSLRELGKKLNLTKSQIYSKLKRIIKIAERFGDVK | not soluble |
| ANMPPGSVEQVAAKVVPSVVMLETDLGRQSEEGSGIILSAEGLILTNNHVIAAAAKPPLGSPPPKTTVTFSDGRTAPFTVVGADPTSDIAVVRVQGVSGLTPISLGSSSDLRVGQPVLAIGSPLGLEGTVTTGIVSALNRPVSTTGEAGNQNTVLDAIQTDAAINPGNSGGALVNMNAQLVGVNSAIATLGADSADAQSGSIGLGFAIPVDQAKRIADELISTGKASHASLGVQVTNDKDTLGAKIVEVVAGGAAANAGVPKGVVVTKVDDRPINSADALVAAVRSKAPGATVALTFQDPSGGSRTVQVTLGKAEQLEHHHHHH | soluble |
| METETATTPTGNTEPTAAASAEPPKSDKVTVRLRNIADAPVLKNKKMVVNPTDTVASFILKLRKLLNIQANNSLFLYIDNTFAPSPDTTFETLSRCYSVKITDKEILELQYSITPAYG | soluble |
| MAHHHHHHMANIITLKSAWDVDRHIVLDSADKLVLIRFSSYTSAAVEAEEYSRQVKRGTATSTSTVAEGSSNSSSSALPTRKRRHDDADGNSACAVTSAATAALLSANVDEHYLRTRQMDALLSELAPKVRKYCTIYFVDTREVTAFNELYELGHDRDPFAVMFFYRNRHIRVDVGTGNNNKINFFAFEDLYDFLPIVDAAYKAGRQGRSIASCDRKFSTVALRR | soluble |
| MQIRNSHLYSASRLVQNTFNASSTKEAANTIAKNNESAALSATQTARTHEGDSKGKSSNGSRSHLRSMRYAAYLAGSAYLYDKTVNDFFLSTTSLNDGKQGFTSDARLQKAEKKAEANYHAYHNRANFGGVAPTRSSLLPKLCGENLFVTMLDFRAATKVHMKNLIDTKEAHDSIANNISCIMGERVKPELLKKHGIVQTPPDFDITKGASYDCKNKYSLSGVPNQETGSYGYASRSVSNPFIEKGENHHARAINSERALTPRNCVDALQPLLQKSERLSPEAQFRAGQALLILRPLYCSSENWGDAHKVLMPFLEKKGLVSSQENQKLGATRPFTQTDMEKGIARRNTSLAGPTLNKLNIFLQKSIYNKDEKAISDLTAKKLGEMKYIPIAHFKMNEDVSSFEDSSGLADSFTGYNVSAYINHARLLSGEDRLSKKDVIAIVGCLNAIYDNASSERHTLREIAHGCFVGAGYTVEDAEDFYNDACKAAATEFYGGRAINVQSQLYSSSVDKPDS | not soluble |
| MLTFKYLLASLLILLVSSQTWGQQSYGNSNQGYGQQQQGFSGFGQGSATNRQGMTGQGLLESSYQQGYGQNQGSMQGYSQQGYGGNSQQDYGYSQSQGSGMGVQGYGGSSQSYGQQAFAQQQRPQQGFQSNGFSGQQASGSMNSFGGQGGYGQNQNGFGGQSGFSGQSGWGSNSLSSANSNGNNNQGSSSGYQNNQGRHQGQGGGHSSSSNSVMSNNGYSSNSGYGNNNGPTPSFLNNVSSSAAQDYYNIVNNKSLTTNQINEQASNWASANSVQAQYIQYETNRSAIHTQATQNVSDIINNLATVQASIEGIQSNTSSSENDRQSAFQALQQAHPMEYSVLTSLQNQHEQTQYARMGSNGNSNSNYGNSNFNSNYGNNGYNHNGNNYFESTTATSAATKKKTTKATSG | not soluble |
| GQELPPGTYRVDIYLNNGYMATRDVTFNTGDSEQGIVPCLTRAQLASMGLNTASVAGMNLLADDACVPLTTMVQDATAHLDVGQQRLNLTIPQAFMSNRARGYIPPELWDPGINA | soluble |
